These results are taken from the Immune Epitope Database (IEDB).

Test in all cases: IEDB peptide-MHC binding, purified MHC/competitive/fluorescence; filed as Kd, often an IC50 or EC50 that approximates it; ≥ and ≤ were set here for values at or beyond the usual limits of such assays
Details in all cases: source organism: Salmonella enterica subsp. enterica serovar Typhi

Test [1] addresses HLA-A*02:01.
The target of test [2] is HLA-A*02:06.
In test [3] the target is HLA-A*03:01.
In test [4] the target is HLA-A*11:01.
Test [5] concerns the target HLA-A*25:01.
For test [6], the target named is HLA-A*26:01.
The target of test [7] is HLA-A*29:02.
Test [8] deals with HLA-A*30:01.
The target in test [9] is HLA-A*31:01.
The target in test [10] is HLA-A*68:23.
Test [11] deals with HLA-B*08:01.
Test [12] addresses HLA-B*15:17.
Test [13] deals with HLA-B*15:42.
Test [14] deals with HLA-B*18:01.
Test [15] addresses HLA-B*27:05.
The target of test [16] is HLA-B*38:01.
Test [17] addresses HLA-B*39:01.
Test [18] deals with HLA-B*44:02.
Test [19] addresses HLA-B*45:06.
Test [20] concerns the target HLA-B*51:01.
Test [21] addresses HLA-B*57:01.
For test [22], the target named is HLA-B*58:01.
Test [23] concerns the target HLA-C*06:02.
The target of test [24] is HLA-C*14:02.

For SVIDHIHYM, the dissociation constant Kd in test [1] is 4.9 nM; in [2], at most 1 nM; in test [3], at least 20000 nM; in [4] it was 71.7 nM; in test [5], 13.7 nM; in test [6] it was 0.28 nM. Further, the Kd is 1.2 nM in [7]; at least 20000 nM in test [8]; 231 nM in test [9]; 0.2 nM in test [10]; at least 20000 nM in test [11]; 50 nM in test [12]. Moreover, the Kd was at least 5000 nM in [13]; at least 20000 nM in [14]; at least 20000 nM in test [15]; at least 20000 nM in test [16]; 2800 nM in test [17]; at least 20000 nM in [18]. Also, the Kd in test [19] was at least 5000 nM; in [20], at least 20000 nM; in test [21], 1530 nM; in [22], 290 nM; in test [23], 26 nM; in test [24] it was 38.4 nM.

Usually Kd stands for the free concentration of one partner at which half of the binding sites on the other are occupied at equilibrium, for simple one-to-one binding. High values mean lower affinity, low ones higher affinity.
